# Columns and labels:
# [1] = target: T1, GRP receptors on Swiss 3T3 cells (Mus musculus, UniProt P21729); experiment: Competitive cell binding vs 125I-Tyr4-BBN, Swiss 3T3 cells
# T1 construct: endogenous in cells; host or cells: Swiss 3T3 mouse fibroblasts (whole cells)
# Method: The binding affinities of the synthetic BBN derivatives were assessed for GRP receptors on Swiss 3T3 cells and, in some cases, on a variety of human cancer cell lines, that express GRP receptors. […] The cell binding assay methods used to measure the IC50's is standard and used techniques previously reported [Jensen et al., 1993; Cai et al., 1994; Cai et al., 1992]. The methods used for determining IC50's for all GRP receptor binding compounds on all cell lines was similar. The specific method used to measure IC50's on Swiss 3T3 cells is briefly described as follows:
# (§1) Swiss 3T3 mouse fibroblasts are grown to confluence in 48 well microtiter plates. […] The growth media was removed, the cells were washed twice with incubation media, and incubation media was returned to the cells. ^125I-Tyr4-BBN (0.01 uCi) was added to each well in the presence of increasing concentrations of the appropriate competitive peptide. Typical concentrations of displacing peptide ranged from 10-12 to 10-5 moles of displacing ligand per well. The cells were incubated at 37° C. for forty minutes in a 95% […]/5% CO2 humidified environment. At forty minutes post initiation of the incubation, the medium was discarded, and the cells were washed twice with cold incubation media. The cells were harvested from the wells following incubation in a trypsin/EDTA solution for five minutes at 37° C. Subsequently, the radioactivity, per well, was determined and the maximum % total uptake of the radiolabeled peptide was determined and normalized to 100%.
# The binding affinities of the synthetic BBN derivatives were assessed for GRP receptors on Swiss 3T3 cells, PC-3 cells and CF PAC-1 cells. The IC50's of each of derivative were determined relative to (i.e., in competition with) ^125I-Tyr^4-BBN. The cell binding assay methods used to measure the IC50's is standard and was used by techniques previously reported [Jensen et al., 1993; Cai et al., 1992; Cai et al., 1994]. The methods used for determining IC50's with all BBN analogue binding to GRP receptors present on all three cell lines were similar. The specific method used to measure IC50's on Swiss 3T3 cells, is briefly described as follows:
# as §1, with “microliter” for “microtiter”, “^125I-Tyr^4-BBN” for “^125I-Tyr4-BBN”, “μCi)” for “uCi)”, “10^−12” for “10-12”, “10^−5” for “10-5”, “100%. A similar procedure was used in performing cell binding assays with both the PC-3 and CFa-PAC-1 human cancer cell lines.” for “100%.”
# in vivo = conditions: SCID, mouse, in vivo, iv, 4 uCi, total radioactivity, Avg % ID, Heart, 24 hrs
# Method: (§2) In vivo pharmacokinetic studies in human tumor bearing SCID mice. […] The xenograft models were produced by bilateral flank inoculation of 5×10^6 cells (PC-3 or MDA-MB-231 cells) per site. Four to six weeks post inoculation, palpable tumors were observed. At this point, the mice were injected with 4 μCi of the complex in […] of isotonic saline via the tail vein. The mice were euthanized and tissues and organs were excised from the animals at selected times post-injection (p.i.), including 15 minutes, 30 minutes, 1 hour, 4 hours, 24 hours, 48 hours, and 72 hours p.i. Subsequently, the tissues and organs were weighed and counted in a NaI well counter and the percent injected dose (% ID) and % ID/g of each organ or tissue calculated.
# (§3) The mice were injected with 4 μCi of the complex in 100 μL of isotonic saline via the tail vein. The mice were euthanized by cervical dislocation. Tissues and organs were excised from the animals following at 1 hour, 4 hour, and 24 hours post-injection (p.i.). Subsequently, the tissues and organs were weighed and counted in a NaI well counter and the percent injected dose (% ID) and % ID/g of each organ or tissue calculated.
# [2] = system: PC-3 human tumor xenografts; experiment: in vivo
# Method: as §2, §3
# T1 sequence (P21729 whole entry): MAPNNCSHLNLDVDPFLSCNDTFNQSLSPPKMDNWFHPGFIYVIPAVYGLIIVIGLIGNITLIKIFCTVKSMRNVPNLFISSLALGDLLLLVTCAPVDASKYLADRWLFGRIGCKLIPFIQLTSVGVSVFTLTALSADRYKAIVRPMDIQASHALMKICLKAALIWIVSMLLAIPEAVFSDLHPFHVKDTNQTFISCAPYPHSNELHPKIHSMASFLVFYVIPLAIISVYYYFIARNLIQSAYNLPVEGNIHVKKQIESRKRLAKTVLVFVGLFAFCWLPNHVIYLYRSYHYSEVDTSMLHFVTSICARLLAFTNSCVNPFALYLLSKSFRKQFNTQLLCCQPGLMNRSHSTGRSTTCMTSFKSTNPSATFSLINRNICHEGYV
smiles,measurement,setting,value
CSCC[C@H](NC(=O)[C@H](CC(C)C)NC(=O)[C@H](Cc1c[nH]cn1)NC(=O)CNC(=O)[C@@H](NC(=O)[C@H](C)NC(=O)[C@H](Cc1c[nH]c2ccccc12)NC(=O)[C@H](CCC(N)=O)NC(=O)CCNC(=O)COC1CSCCCSCCCSCCCSC1)C(C)C)C(N)=O [BBN-46],IC50,[1],2.34 ± 0.53 nM
"CSCC[C@H](NC(=O)[C@H](CC(C)C)NC(=O)[C@H](Cc1cnc[nH]1)NC(=O)CNC(=O)[C@@H](NC(=O)[C@H](C)NC(=O)[C@H](Cc1c[nH]c2ccccc12)NC(=O)[C@H](CCC(N)=O)NC(=O)CCCCCCCNC(=O)CN1CCN(CC(=O)O)CCN(CC(=O)O)CCN(CC(=O)O)CC1)C(C)C)C(N)=O [177Lu-DOTA-8-Aoc-BBN[7-14]NH2, metal not drawn]",tissue uptake dose at 24 h,in vivo,0.01 %ID
CSCC[C@H](NC(=O)[C@H](CC(C)C)NC(=O)[C@H](Cc1cnc[nH]1)NC(=O)CNC(=O)[C@@H](NC(=O)[C@H](C)NC(=O)[C@H](Cc1c[nH]c2ccccc12)NC(=O)[C@H](CCC(N)=O)NC(=O)CCCCCCCNC(=O)CN1CCN(CC(=O)O)CCN(CC(=O)O)CCN(CC(=O)O)CC1)C(C)C)C(N)=O [90Y-DOTA-8-Aoc-BBN[7-14]NH2] [metal not drawn],"Avg % ID, Blood",[2]; 1 hr,0.56 ± 0.20 % ID
same,"Avg % ID, Carcass",[2]; 1 hr,0.62 ± 0.44 % ID
same,"Avg % ID, Kidney",[2]; 1 hr,1.22 ± 0.46 % ID
same,"Avg % ID, L. Intestine",[2]; 1 hr,2.44 ± 0.66 % ID
same,"Avg % ID, Lung",[2]; 1 hr,0.06 ± 0.03 % ID
same,"Avg % ID, Muscle",[2]; 1 hr,0.02 ± 0.02 % ID
same,"Avg % ID, Pancreas",[2]; 1 hr,5.70 ± 1.60 % ID
same,"Avg % ID, S. Intestine",[2]; 1 hr,4.65 ± 0.98 % ID
same,"Avg % ID, Spleen",[2]; 1 hr,0.07 ± 0.04 % ID
same,"Avg % ID, Urine",[2]; 1 hr,57.73 ± 14.52 % ID
same,"Avg % ID/gm, Blood",[2]; 1 hr,0.34 ± 0.12 % ID/gm
same,"Avg % ID/gm, Heart",[2]; 1 hr,0.10 ± 0.11 % ID/gm
same,"Avg % ID/gm, Lung",[2]; 1 hr,0.22 ± 0.12 % ID/gm
same,"Avg % ID/gm, Muscle",[2]; 1 hr,0.15 ± 0.19 % ID/gm
same,"Avg % ID/gm, Pancreas",[2]; 1 hr,24.73 ± 4.97 % ID/gm
same,"Avg % ID/gm, Spleen",[2]; 1 hr,1.09 ± 0.67 % ID/gm
same,"Avg % ID/gm, Stomach",[2]; 1 hr,1.34 ± 0.64 % ID/gm
same,"Avg % ID/gm, Tumor",[2]; 1 hr,2.95±0.99 % ID/gm
same,"Avg % ID, Blood",[2]; 4 hrs,0.09 ± 0.13 % ID
same,"Avg % ID, Carcass",[2]; 4 hrs,0.14 ± 0.11 % ID
same,"Avg % ID, Kidney",[2]; 4 hrs,0.54 ± 0.25 % ID
same,"Avg % ID, L. Intestine",[2]; 4 hrs,3.33 ± 0.71 % ID
same,"Avg % ID, Liver",[2]; 4 hrs,0.19 ± 0.13 % ID
same,"Avg % ID, Pancreas",[2]; 4 hrs,3.42 ± 0.82 % ID
same,"Avg % ID, S. Intestine",[2]; 4 hrs,2.06 ± 1.27 % ID
same,"Avg % ID, Spleen",[2]; 4 hrs,0.02 ± 0.03 % ID
same,"Avg % ID, Stomach",[2]; 4 hrs,0.18 ± 0.06 % ID
same,"Avg % ID, Tumor",[2]; 4 hrs,0.34 ± 0.22 % ID
same,"Avg % ID, Urine",[2]; 4 hrs,67.02 ± 16.74 % ID
same,"Avg % ID/gm, Blood",[2]; 4 hrs,0.05 ± 0.07 % ID/gm
same,"Avg % ID/gm, Heart",[2]; 4 hrs,0.10 ± 0.14 % ID/gm
same,"Avg % ID/gm, Kidney",[2]; 4 hrs,1.68 ± 0.76 % ID/gm
same,"Avg % ID/gm, L. Intestine",[2]; 4 hrs,5.17 ± 1.85 % ID/gm
same,"Avg % ID/gm, Liver",[2]; 4 hrs,0.18 ± 0.12 % ID/gm
same,"Avg % ID/gm, Lung",[2]; 4 hrs,0.07 ± 0.07 % ID/gm
same,"Avg % ID/gm, Muscle",[2]; 4 hrs,0.07 ± 0.13 % ID/gm
same,"Avg % ID/gm, Pancreas",[2]; 4 hrs,14.02 ± 4.89 % ID/gm
same,"Avg % ID/gm, S. Intestine",[2]; 4 hrs,1.66 ± 0.91 % ID/gm
same,"Avg % ID/gm, Stomach",[2]; 4 hrs,0.55 ± 0.16 % ID/gm
same,"Avg % ID/gm, Tumor",[2]; 4 hrs,1.98±0.66 % ID/gm
same,"Avg % ID, Blood",[2]; 24 hrs,0.12 ± 0.14 % ID
same,"Avg % ID, Feces",[2]; 24 hrs,10.71 ± 8.29 % ID
same,"Avg % ID, Heart",[2]; 24 hrs,0.00 ± 0.00 % ID
same,"Avg % ID, Kidney",[2]; 24 hrs,0.17 ± 0.09 % ID
same,"Avg % ID, L. Intestine",[2]; 24 hrs,1.11 ± 0.75 % ID
same,"Avg % ID, Liver",[2]; 24 hrs,0.10 ± 0.03 % ID
same,"Avg % ID, Lung",[2]; 24 hrs,0.00 ± 0.00 % ID
same,"Avg % ID, Muscle",[2]; 24 hrs,0.00 ± 0.01 % ID
same,"Avg % ID, S. Intestine",[2]; 24 hrs,0.51 ± 0.20 % ID
same,"Avg % ID, Tumor",[2]; 24 hrs,0.16 ± 0.09 % ID
same,"Avg % ID, Urine",[2]; 24 hrs,67.62 ± 17.26 % ID
same,"Avg % ID/gm, Blood",[2]; 24 hrs,0.07 ± 0.08 % ID/gm
same,"Avg % ID/gm, Heart",[2]; 24 hrs,0.00 ± 0.00 % ID/gm
same,"Avg % ID/gm, Kidney",[2]; 24 hrs,0.51 ± 0.25 % ID/gm
same,"Avg % ID/gm, L. Intestine",[2]; 24 hrs,1.27 ± 0.92 % ID/gm
same,"Avg % ID/gm, Liver",[2]; 24 hrs,0.08 ± 0.03 % ID/gm
same,"Avg % ID/gm, Lung",[2]; 24 hrs,0.01 ± 0.02 % ID/gm
same,"Avg % ID/gm, Muscle",[2]; 24 hrs,0.02 ± 0.03 % ID/gm
same,"Avg % ID/gm, Pancreas",[2]; 24 hrs,1.80 ± 0.57 % ID/gm
same,"Avg % ID/gm, Spleen",[2]; 24 hrs,0.11 ± 0.13 % ID/gm
same,"Avg % ID/gm, Stomach",[2]; 24 hrs,0.09 ± 0.07 % ID/gm
same,"Avg % ID/gm, Tumor",[2]; 24 hrs,1.08±0.37 % ID/gm
same,"Avg % ID, Blood",[2]; 48 hrs,0.10 ± 0.14 % ID
same,"Avg % ID, Carcass",[2]; 48 hrs,0.11 ± 0.17 % ID
same,"Avg % ID, Heart",[2]; 48 hrs,0.02 ± 0.02 % ID
same,"Avg % ID, Kidney",[2]; 48 hrs,0.10 ± 0.04 % ID
same,"Avg % ID, Pancreas",[2]; 48 hrs,0.15 ± 0.04 % ID
same,"Avg % ID, S. Intestine",[2]; 48 hrs,0.16 ± 0.06 % ID
same,"Avg % ID, Tumor",[2]; 48 hrs,0.11 ± 0.07 % ID
same,"Avg % ID, Urine",[2]; 48 hrs,76.74 ± 21.06 % ID
same,"Avg % ID/gm, Blood",[2]; 48 hrs,0.06 ± 0.08 % ID/gm
same,"Avg % ID/gm, Heart",[2]; 48 hrs,0.14 ± 0.19 % ID/gm
same,"Avg % ID/gm, Kidney",[2]; 48 hrs,0.29 ± 0.12 % ID/gm
same,"Avg % ID/gm, L. Intestine",[2]; 48 hrs,0.77 ± 0.15 % ID/gm
same,"Avg % ID/gm, Muscle",[2]; 48 hrs,0.07 ± 0.13 % ID/gm
same,"Avg % ID/gm, Pancreas",[2]; 48 hrs,0.59 ± 0.14 % ID/gm
same,"Avg % ID/gm, S. Intestine",[2]; 48 hrs,0.13 ± 0.04 % ID/gm
same,"Avg % ID/gm, Spleen",[2]; 48 hrs,0.09 ± 0.24 % ID/gm
same,"Avg % ID/gm, Tumor",[2]; 48 hrs,0.58 ± 0.30 % ID/gm
same,"Avg % ID, Blood",[2]; 72 hrs,0.11 ± 0.15 % ID
same,"Avg % ID, Carcass",[2]; 72 hrs,0.10 ± 0.11 % ID
same,"Avg % ID, Kidney",[2]; 72 hrs,0.13 ± 0.07 % ID
same,"Avg % ID, Liver",[2]; 72 hrs,0.08 ± 0.11 % ID
same,"Avg % ID, Lung",[2]; 72 hrs,0.00 ± 0.01 % ID
same,"Avg % ID, Pancreas",[2]; 72 hrs,0.08 ± 0.05 % ID
same,"Avg % ID, S. Intestine",[2]; 72 hrs,0.11 ± 0.07 % ID
same,"Avg % ID, Spleen",[2]; 72 hrs,0.02 ± 0.01 % ID
same,"Avg % ID, Tumor",[2]; 72 hrs,0.06 ± 0.06 % ID
same,"Avg % ID, Urine",[2]; 72 hrs,82.97 ± 25.39 % ID
same,"Avg % ID/gm, Blood",[2]; 72 hrs,0.06 ± 0.09 % ID/gm
same,"Avg % ID/gm, Kidney",[2]; 72 hrs,0.43 ± 0.29 % ID/gm
same,"Avg % ID/gm, L. Intestine",[2]; 72 hrs,0.47 ± 0.24 % ID/gm
same,"Avg % ID/gm, Liver",[2]; 72 hrs,0.08 ± 0.11 % ID/gm
same,"Avg % ID/gm, Lung",[2]; 72 hrs,0.02 ± 0.03 % ID/gm
same,"Avg % ID/gm, Muscle",[2]; 72 hrs,0.08 ± 0.19 % ID/gm
same,"Avg % ID/gm, Pancreas",[2]; 72 hrs,0.27 ± 0.17 % ID/gm
same,"Avg % ID/gm, S. Intestine",[2]; 72 hrs,0.08 ± 0.05 % ID/gm
same,"Avg % ID/gm, Spleen",[2]; 72 hrs,0.28 ± 0.26 % ID/gm
same,"Avg % ID/gm, Stomach",[2]; 72 hrs,0.07 ± 0.03 % ID/gm
same,"Avg % ID/gm, Tumor",[2]; 72 hrs,0.46 ± 0.48 % ID/gm
